Legend:
purified protein [1] = substrate: CCCC(=O)Oc1ccc([N+](=O)[O-])cc1; experiment: purified protein; type: biochemical, Pleurotus sapidus; conditions: apparent constant, esterase assay: potassium phosphate pH 7.0, 0.5% v/v Triton X-100, 30 °C
purified protein [2] = substrate: CCCCCCCC(=O)Oc1ccc([N+](=O)[O-])cc1; experiment: purified protein; type: biochemical, Pleurotus sapidus; conditions: apparent constant, esterase assay: potassium phosphate pH 7.0, 0.5% v/v Triton X-100, 30 °C

B1: PSA_Lip (Pleurotus sapidus) (protein)
chain: AVLPRDAPNGVHLAVDPKCGVAGGRFGDVNIGLKPLTSYEHIVAFGDSWTDGGAHNGEPLPPPVLTPPNPRAGGRASNGPVWVEKLASAAGATLLDFAEIGAVTDKNIWPSSLLPTTASSANDFVGQAHNYINQRNGFDPETTLYTIFLGVGDFDLSQQTGTDNLYTVAGAIVYTILELTSYPTYAKNIIVVDNYGRGIYETPSGDAFKEGIYAGLNTLHTRYGTSVGFVDLKTLWDGVLGSSPGYEAFGYTSKAACLPSSTSTSGACANPESTFYWLPGIPSAATHGLIADYVEKVLTTC
notes: no tag told; semi-native gel band ~118 kDa
Purified protein [1]
  Km: 1.22 mmol/L
  Vmax: 109 µM/min
  kcat: 1.95 s⁻¹
  kcat/Km: 1610 M⁻¹ s⁻¹
Purified protein [2]
  Km: 0.33 mmol/L
  Vmax: 122 µM/min
  kcat: 2.19 s⁻¹
  kcat/Km: 6560 M⁻¹ s⁻¹
